According to patent publication US20180155413A1 (AstraZeneca / MedImmune, published 2018):
Residue numbers refer to the chain shown, from its start.

B1: FY1/39 BiS4 100/44 (bispecific antibody)
light: DIQMTQSPSSLSASVGDRVTITCRTSQSLSSYLHWYQQKPGKAPKLLIYAASSLQSGVPSRFSGSGSGTDFTLTISSLQPEDFATYYCQQSRTFGQGTKVEIKRTVAAPSVFIFPPSDEQLKSGTASVVCLLNNFYPREAKVQWKVDNALQSGNSQESVTEQDSKDSTYSLSSTLTLSKADYEKHKVYACEVTHQGLSSPVTKSFNRGEC
heavy: not shown
B2: FY1/94 BiS4 100/44 (bispecific antibody)
light: B1 light
heavy: not shown
B3: FY1/94 BiS2 100/44 (bispecific antibody)
light: B1 light
heavy: not shown
B4: GL20/39FTL BiS4 43/105 (bispecific antibody)
light: B1 light with L33T, L54R, Q55G
heavy: not shown
B5: FY1/39 BiS4 43/105 (bispecific antibody)
light: B1 light
heavy: not shown
B6: GL20/39FTL BiS4 100/44 (bispecific antibody)
light: DIQMTQSPSSLSASVGDRVTITCRTSQSLSSYTHWYQQKPGKAPKLLIYAASSRGSGVPSRFSGSGSGTDFTLTISSLQPEDFATYYCQQSRTFGQGTKVEIK
heavy (part 1 of 2): QVQLQQSGPGLVKPSQTLSLTCAISGDSVSSYNAVWNWIRQSPSRGLEWLGRTYYRSGWYNDYAESVKSRITINPDTSKNQFSLQLNSVTPEDTAVYYCARSGHITVFGVNVDAFDMWGQGTMVTVSS
heavy (part 2 of 2): DIQMTQSPSSVSASVGDRVTITCRASQDISTWLAWYQQKPGKAPKLLIYAASSLQSGVPSRFSGSGSGTDFTLTISSLQPEDFATYYCQQANSFPPTFGCGTKLEIKGGGGSGGGGSGGGGSGGGGSEVQLVESGGGLVKPGGSLRLSCAASGFTFLNAWMSWVRQAPGKCLEWVGRIKSNTDGGTTDYAAPVKGRFTISRDDSKNTLYLQMSSLKTEDTAVYYCTTDGPYSDDFRSGYAARYRYFGMDVWGQGTTVTVSS
B7: FY1 IgG (antibody, V domains shown)
VH: B6 heavy (part 1 of 2) with Q6E, Y32N, G58K, I73V, Q85H, N87K, Y97F, A100V
VL: B6 light with T33L, R54L, G55Q
B8: FBD94 IgG (antibody, V domains shown)
VH: EVQLVESGGGLVQPGRSLRLSCAVSGFIFEDYAINWVRQAPGKGLEWVSIISWDSGRIGYADSVRGRFTISRDNAKNSSFLQMNSLRPEDTAVYYCVKDMLAYYYDGSGIRYNLYGMDVWGQGTTVTVSS
VL: EIVLTQSPATLSLSPGERATLSCRASRSITTFLAWYQQKPGQAPRLLIYDASNRATGVPARFSGSGSGTDFTLTINSLEPDDFAIYYCQQRDHWPPIFGQGTRLEIK

Biological target: HA of A/Wilson Smith N/33 (H1N1) (influenza A virus, UniProt P03454 18-565)
Sequence (P03454 18-565 limits assumed): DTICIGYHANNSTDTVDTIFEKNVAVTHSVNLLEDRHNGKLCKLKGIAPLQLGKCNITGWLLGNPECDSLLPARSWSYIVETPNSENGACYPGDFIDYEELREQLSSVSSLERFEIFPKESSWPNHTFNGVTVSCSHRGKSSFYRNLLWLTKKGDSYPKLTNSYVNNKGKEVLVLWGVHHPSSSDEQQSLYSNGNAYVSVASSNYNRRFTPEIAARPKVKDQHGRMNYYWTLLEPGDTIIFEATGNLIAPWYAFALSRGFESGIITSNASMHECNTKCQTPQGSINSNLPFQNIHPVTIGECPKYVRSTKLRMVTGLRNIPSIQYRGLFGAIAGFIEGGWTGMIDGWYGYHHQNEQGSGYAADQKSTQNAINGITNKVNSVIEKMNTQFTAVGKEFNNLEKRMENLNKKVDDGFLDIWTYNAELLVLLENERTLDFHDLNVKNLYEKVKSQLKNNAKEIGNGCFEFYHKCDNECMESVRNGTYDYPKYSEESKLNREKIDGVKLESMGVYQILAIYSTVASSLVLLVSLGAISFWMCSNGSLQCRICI
Assay: cell-based or functional assay

| Binder | Neutralization (IC50) [nM] |
| --- | --- |
| B1 | 10.6 |
| B2 | 7.3 |
| B3 | 19.9 |
| B4 | 9.6 |
| B5 | 4.3 |
| B6 | 13.7 |
| B7 | 8.8 |
| B8 | > 1000 |

Biological target: HA of A/Beijing/262/95 (H1N1) (influenza A virus)
Assay: cell-based or functional assay

| Binder | Neutralization (IC50) [nM] |
| --- | --- |
| B1 | 20.2 |
| B2 | 13.1 |
| B3 | 42 |
| B4 | 11.8 |
| B5 | 10.9 |
| B6 | 16.4 |
| B7 | 21 |
| B8 | > 1000 |

Biological target: HA of A/Solomon Island/3/2006 (H1N1) (influenza A virus)
Assay: cell-based or functional assay

| Binder | Neutralization (IC50) [nM] |
| --- | --- |
| B1 | 3.9 |
| B2 | 2.5 |
| B3 | 4.1 |
| B4 | 3.8 |
| B5 | 2.6 |
| B6 | 4.4 |
| B7 | 3.1 |
| B8 | > 1000 |

Biological target: HA of A/California/07/2009 (H1N1) (influenza A virus)
Assay: cell-based or functional assay

| Binder | Neutralization (IC50) [nM] |
| --- | --- |
| B1 | 8.2 |
| B2 | 6.2 |
| B3 | 23.1 |
| B4 | 20.8 |
| B5 | 7.1 |
| B6 | 25.4 |
| B7 | 10.4 |
| B8 | > 1000 |

Biological target: HA of A/Hong Kong/8/68 (H3N2) (influenza A virus)
Assay: cell-based or functional assay

| Binder | Neutralization (IC50) [nM] |
| --- | --- |
| B1 | 10.6 |
| B2 | 9.1 |
| B3 | 17.2 |
| B4 | 6.3 |
| B5 | 4 |
| B6 | 10.8 |
| B7 | 10.6 |
| B8 | > 1000 |

Biological target: HA of A/Victoria/3/75 (H3N2) (influenza A virus)
Assay: cell-based or functional assay

| Binder | Neutralization (IC50) [nM] |
| --- | --- |
| B1 | 26.4 |
| B2 | 7.2 |
| B3 | 15.8 |
| B4 | 14.9 |
| B5 | 6.5 |
| B6 | 13.3 |
| B7 | 12 |
| B8 | > 1000 |

Biological target: HA of A/Shan dong/9/93 (H3N2) (influenza A virus)
Assay: cell-based or functional assay

| Binder | Neutralization (IC50) [nM] |
| --- | --- |
| B1 | 12.8 |
| B2 | 37.9 |
| B3 | 208 |
| B4 | 22.2 |
| B5 | 20.4 |
| B6 | 21.9 |
| B7 | 34.6 |
| B8 | > 1000 |

Biological target: HA of ca A/Panama/2007/99 (H3N2) (influenza A virus)
Assay: cell-based or functional assay

| Binder | Neutralization (IC50) [nM] |
| --- | --- |
| B1 | 152 |
| B2 | 38.2 |
| B3 | 484 |
| B4 | 35.5 |
| B5 | 52.7 |
| B6 | 34.1 |
| B7 | 104 |
| B8 | > 1000 |

Biological target: HA of ca B/Beijing/243/97 (victoria) (influenza B virus)
Assay: cell-based or functional assay

| Binder | Neutralization (IC50) [nM] |
| --- | --- |
| B1 | 5.8 |
| B2 | 1.8 |
| B3 | 1.1 |
| B4 | 23.5 |
| B5 | 2.6 |
| B6 | 96.2 |
| B7 | > 1000 |
| B8 | 0.1 |

Biological target: HA of B/Hong Kong/330/2001 (victoria) (influenza B virus)
Assay: cell-based or functional assay

| Binder | Neutralization (IC50) [nM] |
| --- | --- |
| B1 | 69.3 |
| B2 | 4 |
| B3 | 2.1 |
| B4 | 164 |
| B5 | 19.1 |
| B6 | 106 |
| B7 | > 1000 |
| B8 | 0.1 |

Biological target: HA of B/Malaysia/2506/2004 (victoria) (influenza B virus)
Assay: cell-based or functional assay

| Binder | Neutralization (IC50) [nM] |
| --- | --- |
| B1 | 27.6 |
| B2 | 1.8 |
| B3 | 0.8 |
| B4 | 16.2 |
| B5 | 12.6 |
| B6 | 42.8 |
| B7 | > 1000 |
| B8 | 0.1 |

Biological target: HA of B/Ohio/1/2005 (victoria) (influenza B virus)
Assay: cell-based or functional assay

| Binder | Neutralization (IC50) [nM] |
| --- | --- |
| B1 | 5.6 |
| B2 | 3 |
| B3 | 1.3 |
| B4 | 17.5 |
| B5 | 5.4 |
| B6 | 20.9 |
| B7 | > 1000 |

Biological target: HA of B/Yamanashi/166/98 (yamagata) (influenza B virus)
Assay: cell-based or functional assay

| Binder | Neutralization (IC50) [nM] |
| --- | --- |
| B1 | 0.9 |
| B2 | 2.3 |
| B3 | 0.5 |
| B4 | 1.1 |
| B5 | 0.6 |
| B6 | 1.4 |
| B7 | > 1000 |
| B8 | 0.1 |

Biological target: HA of B/Sichuan/379/99 (yamagata) (influenza B virus)
Assay: cell-based or functional assay

| Binder | Neutralization (IC50) [nM] |
| --- | --- |
| B1 | 8.2 |
| B2 | 5.2 |
| B3 | 1.7 |
| B4 | 8.7 |
| B5 | 3.5 |
| B6 | 9.8 |
| B7 | > 1000 |
| B8 | 0.2 |

Biological target: HA of B/Florida/4/2006 (yamagata) (influenza B virus)
Assay: cell-based or functional assay

| Binder | Neutralization (IC50) [nM] |
| --- | --- |
| B1 | 3.6 |
| B2 | 1.8 |
| B3 | 0.6 |
| B4 | 4.2 |
| B5 | 1.6 |
| B6 | 7.3 |
| B7 | > 1000 |
| B8 | 0.1 |
